Results taken from the supplement of paper PMC5998384.

Assays:
[1] = test system: HeLa Kyoto; experiment: thermal stability score vs G1/S (z-score of summed log2 fold changes over temperatures); higher = more thermally stable than in G1/S
[2] = test system: HeLa Kyoto; experiment: solubility change mitosis vs G1/S (difference of NP-40 vs SDS log2 ratios) (log2 ratio difference); higher = more soluble in mitosis
[3] = test system: HeLa Kyoto; experiment: melting temperature (median over replicates), in situ; higher = more thermally stable
[4] = test system: HeLa Kyoto; experiment: solubility in G1/S (NP-40 vs SDS abundance) (log2 ratio); higher = more soluble; details: cell cycle stage: G1/S
[5] = cell cycle stage: early G1 (4.5 h after nocodazole release)
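For melting temperature (median over replicates), in situ in this document: HeLa Kyoto cells synchronized by double thymidine or nocodazole block, proteins quantified by TMT10plex mass spectrometry, three independent biological replicates.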
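For solubility change mitosis vs G1/S (difference of NP-40 vs SDS log2 ratios) in this document: synchronized HeLa Kyoto cells (double thymidine block for G1/S, nocodazole release for mitosis), protein amounts in NP-40 versus SDS lysates quantified by mass spectrometry, three biological replicates.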
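For solubility in G1/S (NP-40 vs SDS abundance) in this document: HeLa Kyoto cells arrested at G1/S by double thymidine block, proteins quantified by TMT10plex mass spectrometry in mild NP-40 versus SDS extracts, three biological replicates.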
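For thermal stability score vs G1/S (z-score of summed log2 fold changes over temperatures) in this document: synchronized HeLa Kyoto cells, proteins quantified by TMT10plex mass spectrometry, three biological replicates, mitosis taken 0.5 h after nocodazole release, G1/S directly after double thymidine block.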

| Sequence | thermal stability score [1, 5] | thermal stability score ([1]; cell cycle stage: mitosis) | solubility change mitosis (log2) [2] | melting temperature ([3]; cell cycle stage: G1/S) [°C] | melting temperature ([3]; cell cycle stage: mitosis) [°C] | solubility in G1/S (log2) [4] |
| --- | --- | --- | --- | --- | --- | --- |
| MAITLEEAPWLGWLLVKALMRFAFMVVNNLVAIPSYICYVIILQPLRVLDSKRFWYIEGIMYKWLLGMVASWGWYAGYTVMEWGEDIKAVSKDEAVMLVNHQATGDVCTLMMCLQDKGLVVAQMMWLMDHIFKYTNFGIVSLVHGDFFIRQGRSYRDQQLLLLKKHLENNYRSRDRKWIVLFPEGGFLRKRRETSQAFAKKNNLPFLTNVTLPRSGATKIILNALVAQQKNGSPAGGDAKELDSKSKGLQWIIDTTIAYPKAEPIDIQTWILGYRKPTVTHVHYRIFPIKDVPLETDDLTTWLYQRFVEKEDLLSHFYETGAFPPSKGHKEAVSREMTLSNLWIFLIQSFAFLSGYMWYNIIQYFYHCLF [LPGAT1] | 0.187 | -0.757 | -0.152 | 51.1 | 51.3 | -0.142 |
| MAKAYDHLFKLLLIGDSGVGKTCLIIRFAEDNFNNTYISTIGIDFKIRTVDIEGKKIKLQVWDTAGQERFKTITTAYYRGAMGIILVYDITDEKSFENIQNWMKSIKENASAGVERLLLGNKCDMEAKRKVQKEQADKLAREHGIRFFETSAKSSMNVDEAFSSLARDILLKSGGRRSGNGNKPPSTDLKTCDKKNTNKCSLG [RAB13] | -0.483 | -1.07 | -0.198 | 53.5 | 53 | -0.134 |
| MAKISSPTETERCIESLIAVFQKYAGKDGYNYTLSKTEFLSFMNTELAAFTKNQKDPGVLDRMMKKLDTNSDGQLDFSEFLNLIGGLAMACHDSFLKAVPSQKRT [S100A11] | -4.03 | -4.13 | 0.343 | 53.8 | 52.6 | -1.04 |
| MAKLLSCVLGPRLYKIYRERDSERAPASVPETPTAVTAPHSSSWDTYYQPRALEKHADSILALASVFWSISYYSSPFAFFYLYRKGYLSLSKVVPFSHYAGTLLLLLAGVACLRGIGRWTNPQYRQFITILEATHRNQSSENKRQLANYNFDFRSWPVDFHWEEPSSRKESRGGPSRRGVALLRPEPLHRGTADTLLNRVKKLPCQITSYLVAHTLGRRMLYPGSVYLLQKALMPVLLQGQARLVEECNGRRAKLLACDGNEIDTMFVDRRGTAEPQGQKLVICCEGNAGFYEVGCVSTPLEAGYSVLGWNHPGFAGSTGVPFPQNEANAMDVVVQFAIHRLGFQPQDIIIYAWSIGGFTATWAAMSYPDVSAMILDASFDDLVPLALKVMPDSWRGLVTRTVRQHLNLNNAEQLCRYQGPVLLIRRTKDEIITTTVPEDIMSNRGNDLLLKLLQHRYPRVMAEEGLRVVRQWLEASSQLEEASIYSRWEVEEDWCLSVLRSYQAEHGPDFPWSVGEDMSADGRRQLALFLARKHLHNFEATHCTPLPAQNFQMPWHL [ABHD16A] | 0.0741 | -0.0149 | -0.122 | 51 | 51.3 | -0.125 |
| MAKRNAEKELTDRNWDQEDEAEEVGTFSMASEEVLKNRAIKKAKRRNVGFESDTGGAFKGFKGLVVPSGGGRFSGFGSGAGGKPLEGLSNGNNITSAPPFASAKAAADPKVAFGSLAANGPTTLVDKVSNPKTNGDSQQPSSSGLASSKACVGNAYHKQLAALNCSVRDWIVKHVNTNPLCDLTPIFKDYEKYLANIEQQHGNSGRNSESESNKVAAETQSPSLFGSTKLQQESTFLFHGNKTEDTPDKKMEVASEKKTDPSSLGATSASFNFGKKVDSSVLGSLSSVPLTGFSFSPGNSSLFGKDTTQSKPVSSPFPTKPLEGQAEGDSGECKGGDEEENDEPPKVVVTEVKEEDAFYSKKCKLFYKKDNEFKEKGIGTLHLKPTANQKTQLLVRADTNLGNILLNVLIPPNMPCTRTGKNNVLIVCVPNPPIDEKNATMPVTMLIRVKTSEDADELHKILLEKKDA [NUP50] | -1.56 | -1.75 | 0.0955 | 51.9 | 52.8 | 0.204 |
| MAKTYDYLFKLLLIGDSGVGKTCLLFRFSEDAFNTTFISTIGIDFKIRTIELDGKKIKLQIWDTAGQERFRTITTAYYRGAMGIMLVYDITNEKSFDNIKNWIRNIEEHASSDVERMILGNKCDMNDKRQVSKERGEKLAIDYGIKFLETSAKSSANVEEAFFTLARDIMTKLNRKMNDSNSAGAGGPVKITENRSKKTSFFRCSLL [RAB8B] | 1.55 | 0.563 | -0.0727 | 55.9 | 54 | -0.16 |
| MALAARLLPQFLHSRSLPCGAVRLRTPAVAEVRLPSATLCYFCRCRLGLGAALFPRSARALAASALPAQGSRWPVLSSPGLPAAFASFPACPQRSYSTEEKPQQHQKTKMIVLGFSNPINWVRTRIKAFLIWAYFDKEFSITEFSEGAKQAFAHVSKLLSQCKFDLLEELVAKEVLHALKEKVTSLPDNHKNALAANIDEIVFTSTGDISIYYDEKGRKFVNILMCFWYLTSANIPSETLRGASVFQVKLGNQNVETKQLLSASYEFQREFTQGVKPDWTIARIEHSKLLE [C2ORF47] | 0.0315 | 0.76 | -0.117 | 53.7 | 53.3 | -0.257 |
| MALDGIRMPDGCYADGTWELSVHVTDLNRDVTLRVTGEVHIGGVMLKLVEKLDVKKDWSDHALWWEKKRTWLLKTHWTLDKYGIQADAKLQFTPQHKLLRLQLPNMKYVKVKVNFSDRVFKAVSDICKTFNIRHPEELSLLKKPRDPTKKKKKKLDDQSEDEALELEGPLITPGSGSIYSSPGLYSKTMTPTYDAHDGSPLSPTSAWFGDSALSEGNPGILAVSQPITSPEILAKMFKPQALLDKAKINQGWLDSSRSLMEQDVKENEALLLRFKYYSFFDLNPKYDAIRINQLYEQAKWAILLEEIECTEEEMMMFAALQYHINKLSIMTSENHLNNSDKEVDEVDAALSDLEITLEGGKTSTILGDITSIPELADYIKVFKPKKLTLKGYKQYWCTFKDTSISCYKSKEESSGTPAHQMNLRGCEVTPDVNISGQKFNIKLLIPVAEGMNEIWLRCDNEKQYAHWMAACRLASKGKTMADSSYNLEVQNILSFLKMQHLNPDPQLIPEQITTDITPECLVSPRYLKKYKNKQITARILEAHQNVAQMSLIEAKMRFIQAWQSLPEFGITHFIARFQGGKKEELIGIAYNRLIRMDASTGDAIKTWRFSNMKQWNVNWEIKMVTVEFADEVRLSFICTEVDCKVVHEFIGGYIFLSTRAKDQNESLDEEMFYKLTSGWV [FERMT2] | -0.389 | 0.267 | -0.119 | 54.6 | 55.2 | -0.166 |
| MALHSMRKARERWSFIRALHKGSAAAPALQKDSKKRVFSGIQPTGILHLGNYLGAIESWVRLQDEYDSVLYSIVDLHSITVPQDPAVLRQSILDMTAVLLACGINPEKSILFQQSQVSEHTQLSWILSCMVRLPRLQHLHQWKAKTTKQKHDGTVGLLTYPVLQAADILLYKSTHVPVGEDQVQHMELVQDLAQGFNKKYGEFFPVPESILTSMKKVKSLRDPSAKMSKSDPDKLATVRITDSPEEIVQKFRKAVTDFTSEVTYDPAGRAGVSNIVAVHAAVTGLSVEEVVRRSAGMNTARYKLAVADAVIEKFAPIKREIEKLKLDKDHLEKVLQIGSAKAKELAYTVCQEVKKLVGFL [WARS2] | 0.66 | 0.794 | -0.0372 | 48.7 | 49.2 | 0.308 |
| MALPHDSNETSYLLPPNNEDWGRQTIPDFVYGQKDLMAEGIQWPRNAPGIPDALPQSPFDAALCSAWKQRVELGLFRYRLRELQTQILPGAVGFVAQLNVERGVQRRPPQTIKSVRQAFDPVQFNFNKIRPGEVLFRLHREPDLPGTLLQEDILVVINVSPLEWGHVLLVPEPARQLPQRLLPGALRAGIEAVLLSLHPGFRVGFNSLGGLASVNHLHLHGYYLAHRLPVEQAPSEPLDPGGHLHLLQDLPAPGFLFYTRGPGPDLESLISRVCRATDYLTDHEIAHNLFVTRGAPPGKTSPSSALTGVRVILWARKSSFGIKDGEAFNVALCELAGHLPVKTSQDFSSLTEAAAVALIQDCRLPPSQAEDVQAALVALMSQEEQ [GDPGP1] | -0.152 | -0.661 | -0.107 | 52.5 | 51 | 0.217 |
| MALQVELVPTGEIIRVVHPHRPCKLALGSDGVRVTMESALTARDRVGVQDFVLLENFTSEAAFIENLRRRFRENLIYTYIGPVLVSVNPYRDLQIYSRQHMERYRGVSFYEVPPHLFAVADTVYRALRTERRDQAVMISGESGAGKTEATKRLLQFYAETCPAPERGGAVRDRLLQSNPVLEAFGNAKTLRNDNSSRFGKYMDVQFDFKGAPVGGHILSYLLEKSRVVHQNHGERNFHIFYQLLEGGEEETLRRLGLERNPQSYLYLVKGQCAKVSSINDKSDWKVVRKALTVIDFTEDEVEDLLSIVASVLHLGNIHFAANEESNAQVTTENQLKYLTRLLSVEGSTLREALTHRKIIAKGEELLSPLNLEQAAYARDALAKAVYSRTFTWLVGKINRSLASKDVESPSWRSTTVLGLLDIYGFEVFQHNSFEQFCINYCNEKLQQLFIELTLKSEQEEYEAEGIAWEPVQYFNNKIICDLVEEKFKGIISILDEECLRPGEATDLTFLEKLEDTVKHHPHFLTHKLADQRTRKSLGRGEFRLLHYAGEVTYSVTGFLDKNNDLLFRNLKETMCSSKNPIMSQCFDRSELSDKKRPETVATQFKMSLLQLVEILQSKEPAYVRCIKPNDAKQPGRFDEVLIRHQVKYLGLLENLRVRRAGFAYRRKYEAFLQRYKSLCPETWPTWAGRPQDGVAVLVRHLGYKPEEYKMGRTKIFIRFPKTLFATEDALEVRRQSLATKIQAAWRGFHWRQKFLRVKRSAICIQSWWRGTLGRRKAAKRKWAAQTIRRLIRGFVLRHAPRCPENAFFLDHVRTSFLLNLRRQLPQNVLDTSWPTPPPALREASELLRELCIKNMVWKYCRSISPEWKQQLQQKAVASEIFKGKKDNYPQSVPRLFISTRLGTDEISPRVLQALGSEPIQYAVPVVKYDRKGYKPRSRQLLLTPNAVVIVEDAKVKQRIDYANLTGISVSSLSDSLFVLHVQRADNKQKGDVVLQSDHVIETLTKTALSANRVNSININQGSITFAGGPGRDGTIDFTPGSELLITKAKNGHLAVVAPRLNSR [MYO1C] | -1.1 | 3.69 | -0.0879 | 50.1 | 50.2 | -0.972 |
| MALRACGLIIFRRCLIPKVDNNAIEFLLLQASDGIHHWTPPKGHVEPGEDDLETALRETQEEAGIEAGQLTIIEGFKRELNYVARNKPKTVIYWLAEVKDYDVEIRLSHEHQAYRWLGLEEACQLAQFKEMKAALQEGHQFLCSIEA [NUDT2] | -0.841 | -1.24 | 0.0921 | 51.7 | 51.9 | -0.102 |
| MALSAQQIPRWFNSVKLRSLINAAQLTKRFTRPARTLLHGFSAQPQISSDNCFLQWGFKTYRTSSLWNSSQSTSSSSQENNSAQSSLLPSMNEQSQKTQNISSFDSELFLEELDELPPLSPMQPISEEEAIQIIADPPLPPASFTLRDYVDHSETLQKLVLLGVDLSKIEKHPEAANLLLRLDFEKDIKQMLLFLKDVGIEDNQLGAFLTKNHAIFSEDLENLKTRVAYLHSKNFSKADVAQMVRKAPFLLNFSVERLDNRLGFFQKELELSVKKTRDLVVRLPRLLTGSLEPVKENMKVYRLELGFKHNEIQHMITRIPKMLTANKMKLTETFDFVHNVMSIPHHIIVKFPQVFNTRLFKVKERHLFLTYLGRAQYDPAKPNYISLDKLVSIPDEIFCEEIAKASVQDFEKFLKTL [MTERF3] | -0.741 | 0.517 | -0.167 | 49.7 | 50.3 | 0.238 |
| MALWRGSAYAGFLALAVGCVFLLEPELPGSALRSLWSSLCLGPAPAPPGPVSPEGRLAAAWDALIVRPVRRWRRVAVGVNACVDVVLSGVKLLQALGLSPGNGKDHSILHSRNDLEEAFIHFMGKGAAAERFFSDKETFHDIAQVASEFPGAQHYVGGNAALIGQKFAANSDLKVLLCGPVGPKLHELLDDNVFVPPESLQEVDEFHLILEYQAGEEWGQLKAPHANRFIFSHDLSNGAMNMLEVFVSSLEEFQPDLVVLSGLHMMEGQSKELQRKRLLEVVTSISDIPTGIPVHLELASMTNRELMSSIVHQQVFPAVTSLGLNEQELLFLTQSASGPHSSLSSWNGVPDVGMVSDILFWILKEHGRSKSRASDLTRIHFHTLVYHILATVDGHWANQLAAVAAGARVAGTQACATETIDTSRVSLRAPQEFMTSHSEAGSRIVLNPNKPVVEWHREGISFHFTPVLVCKDPIRTVGLGDAISAEGLFYSEVHPHY [ADPGK] | 1.05 | -1.45 | -0.191 | 55.3 | 55.4 | -0.0136 |
